# Laboratory results as given in patent US20230391858A1 (ANNEXON, published 2023).
# B1: FabA, anti-C1q antibody Fab fragment comprising heavy chain Fab fragment of SEQ ID NO: 39 and light chain Fab fragment of SEQ ID NO: 40 (Fab)
# heavy: QVQLVQSGAELKKPGASVKVSCKSSGYHFTSYWMHWVKQAPGQGLEWIGVIHPNSGSINYNEKFESRVTITVDKSTSTAYMELSSLRSEDTAVYYCAGERDSTEVLPMDYWGQGTTVTVSSASTKGPSVFPLAPSSKSTSGGTAALGCLVKDYFPEPVTVSWNSGALTSGVHTFPAVLQSSGLYSLSSVVTVPSSSLGTQTYICNVNHKPSNTKVDKKVEPKSCDKTHT
# light: DVQITQSPSSLSASLGERATINCRASKSINKYLAWYQQKPGKAPKLLIYSGSTLQSGIPARFSGSGSGTDFTLTISSLEPEDFAMYYCQQHNEYPLTFGQGTKLEIKRTVAAPSVFIFPPSDEQLKSGTASVVCLLNNFYPREAKVQWKVDNALQSGNSQESVTEQDSKDSTYSLSSTLTLSKADYEKHKVYACEVTHQGLSSPVTKSFNRGEC
# notes: The heavy chain is truncated after the first heavy chain constant domain of IgG1; also called anti-C1q monovalent Fab; anti-C1q Fab
# Key:
# [1] = target: T1, human complement factor C1q (chains A, B and C) (human, UniProt P02745 23-245; P02746 28-253; P02747 29-245); test: cell-based or functional assay
# [2] = target: T1, human complement factor C1q (chains A, …); test: method not stated; affinity stated in the description
# T1 sequence (P02745 23-245 limits assumed, chain 1 of 3): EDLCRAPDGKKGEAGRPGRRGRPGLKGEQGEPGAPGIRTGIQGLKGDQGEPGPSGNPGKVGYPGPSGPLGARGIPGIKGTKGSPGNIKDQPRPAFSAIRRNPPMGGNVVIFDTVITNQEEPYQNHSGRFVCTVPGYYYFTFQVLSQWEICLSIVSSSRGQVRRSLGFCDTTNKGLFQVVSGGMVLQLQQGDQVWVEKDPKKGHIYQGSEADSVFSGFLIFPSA
# T1 sequence (P02746 28-253 limits assumed, chain 2 of 3): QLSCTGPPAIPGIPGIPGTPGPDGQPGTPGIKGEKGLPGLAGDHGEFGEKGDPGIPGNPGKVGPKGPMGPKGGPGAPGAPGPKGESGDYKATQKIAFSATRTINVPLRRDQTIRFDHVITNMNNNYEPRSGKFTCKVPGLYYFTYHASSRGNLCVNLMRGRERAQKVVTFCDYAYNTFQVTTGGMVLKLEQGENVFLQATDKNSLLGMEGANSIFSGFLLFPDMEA
# T1 sequence (P02747 29-245 limits assumed, chain 3 of 3): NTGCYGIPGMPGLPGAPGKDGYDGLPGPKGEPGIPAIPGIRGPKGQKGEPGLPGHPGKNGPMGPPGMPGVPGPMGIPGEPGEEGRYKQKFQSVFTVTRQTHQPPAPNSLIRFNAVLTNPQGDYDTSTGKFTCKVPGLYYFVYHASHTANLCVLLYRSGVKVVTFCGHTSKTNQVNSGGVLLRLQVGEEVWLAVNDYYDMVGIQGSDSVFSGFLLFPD
binder,measurement,setting,value
B1,IC50 for inhibition of hemolysis of CAD-sensitized human RBCs in normal human serum,[1],~10 nM
same,IC50 of inhibition of C4 and C3d deposition on human RBCs (flow cytometry),[1],~10 nM
same,Kd,[2],0.01 nM
